US20230295293A1, “BINDING MOLECULES AGAINST FRa” (AstraZeneca AB, priority 2022, published 2023)
Numbering of substitutions follows the chain as printed.

B1: AB1370035: anti-FRα fully human IgG1 antibody; VH SEQ ID NO: 41, VL SEQ ID NO: 42 (antibody, V domains shown)
VH: QVQLQQSGPGLVKPSQTLSLTCAISGDSVSSNSAAWNWIRQSPSRGLEWLGRTYYRSNWYNDYTLSVKSRITVNPDTSKNQFSLQLNSVTPEDTAVYYCVRGVGRFDSWGQGTLVTVSS
VL: DIQMTQSPSTLSASVGDRVIITCRASQSISSWLAWYQQKPGKAPKLLIYKASSLESGVPSRFSGSGSGTEFTLTITSLQPDDFASYYCQEYKTYSIFTFGPGTKVDIK
B2: AB1370026: anti-FRα fully human IgG1 antibody; VH SEQ ID NO: 39, VL SEQ ID NO: 40 (antibody, V domains shown)
VH: EVQLVESGGGLVKPGGSLRLSCAASGFTFSSYAMSWVRQAPGKGLEWVSSISSGRSYIYYADSVKGRFTISRDNAKNSLYLKMNSLRDEDTAVYYCAREMQQLALDYWGQGTLVTVSS
VL: DIQMTQSPSSLSASVGDRVTITCRASQGISNFLAWFQQAPGKAPKSLIYAASSLQSGVPSKFSGSGSGTDFTLTISSLQPEDFATYYCQQYNSYPFTFGQGTKLEIK
B3: AB1370083: anti-FRα fully human IgG1 antibody; VH SEQ ID NO: 43, VL SEQ ID NO: 44 (antibody, V domains shown)
VH: EVQLVESGGGLVKPGGSLRLSCAASGFTFSSYNMNWVRQAPGKGLEWVSSISSGSSYIYYADSMKGRFTISRDNAKNSLFLQMNSLRAEDTAVYYCARGMTTLTFDYWGQGTLVTVSS
VL: B2 VL with N31T, A39K, G68E, N92I, F96L, Q100G, L104V
B4: AB1370095: anti-FRα fully human IgG1 antibody; VH SEQ ID NO: 45, VL SEQ ID NO: 46 (antibody, V domains shown)
VH: B3 VH with N33S, G54R, I58V, M64V, F80Y
VL: B2 VL with N31S, A39K, F96L, Q100G, L104V

tested on: cyno FRα; test: HTRF antigen (IgG) binding assay; design: species or system cynomolgus monkey; settings: hybridoma supernatant, 1 nM biotinylated antigen; binder >30% delta F
Procedure: (§1) The negative control ratio was derived from nonspecific binding (NSB) control wells. Curves were analysed using GraphPad Prism software using a four-parameter logistic curve-fitting equation.

cyno FRα, sequence (as listed by the source): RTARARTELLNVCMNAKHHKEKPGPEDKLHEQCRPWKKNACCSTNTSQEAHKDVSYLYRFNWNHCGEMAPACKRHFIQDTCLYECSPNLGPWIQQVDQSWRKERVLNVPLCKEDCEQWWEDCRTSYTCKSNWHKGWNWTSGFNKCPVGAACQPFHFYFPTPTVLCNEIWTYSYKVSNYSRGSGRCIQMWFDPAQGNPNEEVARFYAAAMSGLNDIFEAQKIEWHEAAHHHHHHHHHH

| HTRF IgG binding assay (% Delta F) Cyno FRα | Molecule |
| --- | --- |
| 141.47 % Delta F | B1 |
| 213.68 % Delta F | B2 |
| 85.16 % Delta F | B3 |
| 85.33 % Delta F | B4 |

tested on: not listed separately; test: Accelerated thermal stability assay, HP-SEC; assay type: physicochemical; settings: 4° C., 2 weeks, 1 mg/ml in PBS
Procedure: IgG were diluted to 1 mg/ml in PBS then incubated at 4° C. or 45° C. for 2 weeks then filtered using filter spin columns (Millipore, UFC30HVNB). High performance-size exclusion chromatography (HP-SEC) was performed by loading 70 μl of IgG onto a TSKgel G3000SWXL; 5 μm, 7.8 mm×300 mm column using a flow rate of 1 ml/min and 0.1 M sodium phosphate dibasic anhydrous and 0.1 M sodium sulphate, pH 6.8 as the isocratic running buffer. Larger molecules are excluded from the pores of the size exclusion column to a greater extent than smaller molecules, and therefore elute earlier. Peaks eluting earlier than the monomer peak are recorded as aggregates. Peaks eluting after the monomer peak (excluding the buffer-related peak) are recorded as fragments. In parallel, antibodies were profiled in the HTRF epitope competition assay for changes in potency.

| Molecule | HP SEC % monomer |
| --- | --- |
| B1 | 100% |
| B2 | 100% |
| B3 | 99.6% |
| B4 | 99.2% |

same assay, conditions: 45° C., 2 weeks, 1 mg/ml in PBS

| Molecule | HP SEC % monomer |
| --- | --- |
| B1 | 97.3% |
| B2 | 97.3% |
| B3 | 98.3% |
| B4 | 96.6% |

tested on: not listed separately; test: Hydrophobic interaction chromatography (HIC) HPLC; assay type: physicochemical; settings: higher retention = more hydrophobic

| Molecule | Retention time by HIC-HPLC |
| --- | --- |
| B1 | 2.25 min |
| B2 | 1.96 min |
| B3 | 2.27 min |
| B4 | 2.12 min |

target: T1, human FRα (Homo sapiens, UniProt P15328); test: HTRF epitope competition assay with Comparator 1 IgG; assay type: binding; settings: n > 2; human IgG1 format
T1 construct: CD33 leader (signal peptide) (N, cleaved yes); made in house; host or cells: in-house suspension-adapted CHO cell line
Procedure: (§2) HTRF epitope competition assays were set up using a titration of test IgG, 1 nM streptavidin cryptate, biotinylated human FRα and DyLight 650 labelled IgG to assay volume of 10 μl. For the Comparator Antibody 1 and Comparator Antibody 2 assays, 0.5 nM biotinylated human FRα and 0.5 nM DyLight 650 labelled Comparator Antibody 1 or Comparator Antibody 2 was used. […] Assay plates were incubated for 3-4 h at room temperature prior to fluorescence measurement.

T1 sequence (P15328 with tags, fused parts or gaps): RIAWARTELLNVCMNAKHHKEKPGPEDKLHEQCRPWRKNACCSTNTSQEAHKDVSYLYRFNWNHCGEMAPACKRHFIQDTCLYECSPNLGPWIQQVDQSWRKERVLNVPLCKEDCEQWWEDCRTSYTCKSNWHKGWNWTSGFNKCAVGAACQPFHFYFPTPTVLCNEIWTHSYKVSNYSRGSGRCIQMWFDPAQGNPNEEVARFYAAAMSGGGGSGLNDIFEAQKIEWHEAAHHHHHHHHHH

| HTRF epitope competition assay, geomean IC50 (M), Comparator 1 IgG | Molecule |
| --- | --- |
| inhibited | B1 |
| inhibited | B2 |
| inhibited | B3 |
| inhibited | B4 |

target: T1, human FRα; test: HTRF epitope competition assay with Comparator 2 IgG; assay type: binding; settings: n > 2; human IgG1 format
Procedure: as §2

| HTRF epitope competition assay, geomean IC50 (M), Comparator 2 IgG | Molecule |
| --- | --- |
| inhibited | B1 |
| inhibited | B2 |
| inhibited | B3 |
| inhibited | B4 |

target: T1, human FRα; test: Biacore T200 surface plasmon resonance affinity; assay type: binding; settings: SPR 25° C.
Procedure: (§3) Protein A was covalently immobilised to a CM5 chip surface using standard amine coupling techniques at a concentration of 50 μg/ml in 10 mM Sodium acetate, pH 4.0. The antibody was captured onto the Protein A surface in HBS-EP+ buffer, pH 7.4 at 10 μl/min to enable FRα ECD binding. The FRα ECD was serially diluted (0.4 nM-100 nM human FRα ECD; 0.8 nM-200 nM cyno FRα ECD; 30 nM-4000 nM mouse FRα ECD and rat FRα ECD) in HBS-EP+ buffer, pH 7.4 and flowed over the chip at 50 μl/min, with 2 minutes association and 8 minutes dissociation. The chip surface was fully regenerated with pulses of 3 M MgCl2 to remove captured antibody together with any bound FRα ECD. Multiple buffer-only injections were made under the same conditions to allow for double reference subtraction of the final sensorgram sets, which were analysed using Biacore T200 Evaluation Software to derive equilibrium dissociation constants.

| ka | kd | Molecule |
| --- | --- | --- |
| 568000 M⁻¹ s⁻¹ | 0.000527 s⁻¹ | B1 |
| 279000 M⁻¹ s⁻¹ | 0.000354 s⁻¹ | B2 |
| 145000 M⁻¹ s⁻¹ | 0.000135 s⁻¹ | B3 |
| 95700 M⁻¹ s⁻¹ | 0.00129 s⁻¹ | B4 |

tested on: not listed separately; test: Pharmacokinetics of anti-FRα antibodies in wild-type SCID mice; assay type: in vivo, mouse; settings: 5 mg/kg iv bolus, total antibody
Procedure: Pharmacokinetic parameters were determined using Phoenix 64 software (Certara).
Plasma antibody concentrations were determined by the universal ELISA IgG assay.

| Molecule | AUClast | CL | Cmax | Vss | t1/2 |
| --- | --- | --- | --- | --- | --- |
| B1 | 455 µg·days/mL | 5.6 mL/day/kg | 73.2 µg/mL | 0.16 L/kg | 19.5 days |
| B2 | 553 µg·days/mL | 5.3 mL/day/kg | 91.7 µg/mL | 0.124 L/kg | 16.6 days |
| B3 | 430 µg·days/mL | 8.6 mL/day/kg | 86.0 µg/mL | 0.132 L/kg | 11.0 days |
| B4 | 646 µg·days/mL | 6.6 mL/day/kg | 123.2 µg/mL | 0.071 L/kg | 7.8 days |

target: T1, human FRα; test: HTRF antigen (IgG) binding assay; settings: hybridoma supernatant, 1 nM biotinylated antigen; binder >30% delta F
Procedure: as §1

| HTRF IgG binding assay (% Delta F) Human FRα | Molecule |
| --- | --- |
| 225.19 % Delta F | B1 |
| 270.58 % Delta F | B2 |
| 139.98 % Delta F | B3 |
| 126.25 % Delta F | B4 |

target: T2, human FRγ (Homo sapiens, UniProt P41439); test: HTRF antigen (IgG) binding assay; settings: hybridoma supernatant, 1 nM biotinylated antigen; binder >30% delta F
T2 construct: CD33 signal peptide (N, cleaved yes); made in house
Procedure: as §1

T2 sequence (P41439 with tags, fused parts or gaps): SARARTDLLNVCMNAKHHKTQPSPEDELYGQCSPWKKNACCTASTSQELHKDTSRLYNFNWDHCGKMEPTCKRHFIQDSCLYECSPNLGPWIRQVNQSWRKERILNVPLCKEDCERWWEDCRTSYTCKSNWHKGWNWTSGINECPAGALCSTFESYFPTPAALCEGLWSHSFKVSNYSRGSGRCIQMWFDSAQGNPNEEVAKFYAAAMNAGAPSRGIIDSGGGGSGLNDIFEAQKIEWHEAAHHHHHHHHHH

| HTRF IgG binding assay (% Delta F) Human FRγ | Molecule |
| --- | --- |
| 9.2 % Delta F | B1 |
| 1.31 % Delta F | B2 |
| −2.92 % Delta F | B3 |
| −1.17 % Delta F | B4 |

target: T3, mouse FRα (Mus musculus, UniProt P35846); test: HTRF antigen (IgG) binding assay; settings: hybridoma supernatant, 1 nM biotinylated antigen; binder >30% delta F
T3 construct: CD33 signal peptide (N, cleaved yes); made in house
Procedure: as §1

T3 sequence (P35846 with tags, fused parts or gaps): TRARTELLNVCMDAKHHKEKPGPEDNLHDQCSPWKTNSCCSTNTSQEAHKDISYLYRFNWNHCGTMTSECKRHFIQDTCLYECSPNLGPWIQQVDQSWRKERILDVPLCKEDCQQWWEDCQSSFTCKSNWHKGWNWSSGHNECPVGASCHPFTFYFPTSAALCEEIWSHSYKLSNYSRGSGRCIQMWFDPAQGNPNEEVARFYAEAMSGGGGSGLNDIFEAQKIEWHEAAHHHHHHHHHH

| HTRF IgG binding assay (% Delta F) Mouse FRα | Molecule |
| --- | --- |
| −5.22 % Delta F | B1 |
| 1.63 % Delta F | B2 |
| −3.65 % Delta F | B3 |
| −5.66 % Delta F | B4 |

target: T4, human FRβ (Homo sapiens, UniProt P14207); test: HTRF antigen (IgG) binding assay; settings: hybridoma supernatant, 1 nM biotinylated antigen; binder >30% delta F
T4 construct: CD33 signal peptide (N, cleaved yes); made in house
Procedure: as §1

T4 sequence (P14207 with tags, fused parts or gaps): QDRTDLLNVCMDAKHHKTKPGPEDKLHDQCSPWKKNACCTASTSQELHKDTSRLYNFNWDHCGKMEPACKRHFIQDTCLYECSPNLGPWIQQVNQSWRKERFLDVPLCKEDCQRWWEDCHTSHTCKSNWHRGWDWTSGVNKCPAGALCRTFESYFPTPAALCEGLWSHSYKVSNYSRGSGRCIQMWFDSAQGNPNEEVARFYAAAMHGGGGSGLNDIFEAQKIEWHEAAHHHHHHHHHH

| HTRF IgG binding assay (% Delta F) Human FRβ | Molecule |
| --- | --- |
| −3.26 % Delta F | B1 |
| −0.38 % Delta F | B2 |
| 3.81 % Delta F | B3 |
| −5.87 % Delta F | B4 |

target: T1, human FRα; test: HTRF epitope competition assay with Comparator 3 IgG; assay type: binding; settings: n > 2; human IgG1 format
Procedure: as §2

| HTRF epitope competition assay, geomean IC50 (M), Comparator 3 IgG | Molecule |
| --- | --- |
| inhibited | B1 |
| no inhibition | B2 |
| no inhibition | B3 |
| no inhibition | B4 |

tested on: cyno FRα; test: Biacore T200 surface plasmon resonance affinity; assay type: binding, cynomolgus monkey; settings: SPR 25° C.
Procedure: as §3

| kd | Molecule | ka |
| --- | --- | --- |
| 0.000508 s⁻¹ | B1 | 475000 M⁻¹ s⁻¹ |
| 0.000342 s⁻¹ | B2 | 195000 M⁻¹ s⁻¹ |
| 0.00016 s⁻¹ | B3 | 101000 M⁻¹ s⁻¹ |
| 0.00183 s⁻¹ | B4 | 95800 M⁻¹ s⁻¹ |
